{"source": "patent US20230220443", "molecular_target": "H3(1-53) peptide", "data": [{"protein": "protein lysine N-methyltransferase (histone H3 lysine-9 specific) from Neurospora crassa (NcDIM-5) (protein) IRSFATHAQLPISIVNREDDAFLNPNFRFIDHSIIGKNVPVADQSFRVGCSCASDEECMYSTCQCLDEMAPDSDEEADPYTRKKRFAYYSQGAKKGLLRDRVLQSQEPIYECHQGCACSKDCPNRVVERGRTVPLQIFRTKDRGWGVKCPVNIKRGQFVDRYLGEIITSEEADRRRAESTIARRKDVYLFALDKFSDPDSLDPLLAGQPLEVDGEYMSGPTRFINHSCDPNMAIFARVGDHADKHIHDLALFAIKDIPKGTELTFDYVNGLTGLESDAHDPSKISEMTKCLCGTAKCRGYLW", "values": [{"measurement": "Km for peptide H3(1-53), TM0936-coupled methyltransferase assay (absorbance 263 nm), SAM saturating, 7.6 nM NcDIM-5, glycine buffer pH 9.50", "result": 0.9, "unit": "µM"}]}]}
